The chains are these.
B1: DCX26 (peptide)
peptide: SGRTTSEISGLWGWGDDRSGYGWGNTLRPNYIPYRQATNRHRYTAETVESCLAKPHTENSFTNVWKDDKTLDRYANYEGCLWNATGVVVCTGDETQCYGTWVPIGLAIPENEGGGSEGGGSEGGGSEGGGTKPPEYGDTPIPGYTYINPLDGTYPPGTEQNPANPNPSLEESQPLNTFMFQNNRFRNRQGALTVYTGTVTQGTDPVKTYYQYTPVSSKAMYDAYWNGKFRDCAFHSGFNEDPFVCEYQGQSSDLPQPPVNAGGGSGGGSGGGSEGGGSEGGGSEGGGSEGGGSGGGSGSGDFDYEKMANANKGAMTENADENALQSDAKGKLDSVATDYGAAIDGFIGDVSGLANGNGATGDFAGSNSQMAQVGDGDNSPLMNNFRQYLPSLPQSVECRPFVFSAGKPYEFSIDCDKINLFRGVFAFLLYVATFMYVFSTFANILRNKES
notes: Assayed as M13 phage clone displaying the insert
B2: DCX33 (peptide)
peptide: RWNWTVLPATGGHYWTRSTDYHAINNHRPSIPHQHPTPIAETVESCLAKPHTENSFTNVWKDDKTLDRYANYEGCLWNATGVVVCTGDETQCYGTWVPIGLAIPENEGGGSEGGGSEGGGSEGGGTKPPEYGDTPIPGYTYINPLDGTYPPGTEQNPANPNPSLEESQPLNTFMFQNNRFRNRQGALTVYTGTVTQGTDPVKTYYQYTPVSSKAMYDAYWNGKFRDCAFHSGFNEDPFVCEYQGQSSDLPQPPVNAGGGSGGGSGGGSEGGGSEGGGSEGGGSEGGGSGGGSGSGDFDYEKMANANKGAMTENADENALQSDAKGKLDSVATDYGAAIDGFIGDVSGLANGNGATGDFAGSNSQMAQVGDGDNSPLMNNFRQYLPSLPQSVECRPFVFSAGKPYEFSIDCDKINLFRGVFAFLLYVATFMYVFSTFANILRNKES
notes: as for B1
B3: DCX45 (peptide)
peptide: SVGNDKTSRPVSFYGRVSDLWNASLMPKRTPSSKRHDDGAETVESCLAKPHTENSFTNVWKDDKTLDRYANYEGCLWNATGVVVCTGDETQCYGTWVPIGLAIPENEGGGSEGGGSEGGGSEGGGTKPPEYGDTPIPGYTYINPLDGTYPPGTEQNPANPNPSLEESQPLNTFMFQNNRFRNRQGALTVYTGTVTQGTDPVKTYYQYTPVSSKAMYDAYWNGKFRDCAFHSGFNEDPFVCEYQGQSSDLPQPPVNAGGGSGGGSGGGSEGGGSEGGGSEGGGSEGGGSGGGSGSGDFDYEKMANANKGAMTENADENALQSDAKGKLDSVATDYGAAIDGFIGDVSGLANGNGATGDFAGSNSQMAQVGDGDNSPLMNNFRQYLPSLPQSVECRPFVFSAGKPYEFSIDCDKINLFRGVFAFLLYVATFMYVFSTFANILRNKES
notes: as for B1
B4: DCX36 (peptide)
peptide: SWSSWNWSSKTTRLGDRATREGCGPSQSDGCPYNGRLTTVKPRTAETVESCLAKPHTENSFTNVWKDDKTLDRYANYEGCLWNATGVVVCTGDETQCYGTWVPIGLAIPENEGGGSEGGGSEGGGSEGGGTKPPEYGDTPIPGYTYINPLDGTYPPGTEQNPANPNPSLEESQPLNTFMFQNNRFRNRQGALTVYTGTVTQGTDPVKTYYQYTPVSSKAMYDAYWNGKFRDCAFHSGFNEDPFVCEYQGQSSDLPQPPVNAGGGSGGGSGGGSEGGGSEGGGSEGGGSEGGGSGGGSGSGDFDYEKMANANKGAMTENADENALQSDAKGKLDSVATDYGAAIDGFIGDVSGLANGNGATGDFAGSNSQMAQVGDGDNSPLMNNFRQYLPSLPQSVECRPFVFSAGKPYEFSIDCDKINLFRGVFAFLLYVATFMYVFSTFANILRNKES
notes: as for B1
B5: DCX42 (peptide)
peptide: RYSGLSPRDNGPACSQEATLEGCGAQRLMSTRRKGRNSRPGWTLAETVESCLAKPHTENSFTNVWKDDKTLDRYANYEGCLWNATGVVVCTGDETQCYGTWVPIGLAIPENEGGGSEGGGSEGGGSEGGGTKPPEYGDTPIPGYTYINPLDGTYPPGTEQNPANPNPSLEESQPLNTFMFQNNRFRNRQGALTVYTGTVTQGTDPVKTYYQYTPVSSKAMYDAYWNGKFRDCAFHSGFNEDPFVCEYQGQSSDLPQPPVNAGGGSGGGSGGGSEGGGSEGGGSEGGGSEGGGSGGGSGSGDFDYEKMANANKGAMTENADENALQSDAKGKLDSVATDYGAAIDGFIGDVSGLANGNGATGDFAGSNSQMAQVGDGDNSPLMNNFRQYLPSLPQSVECRPFVFSAGKPYEFSIDCDKINLFRGVFAFLLYVATFMYVFSTFANILRNKES
notes: as for B1
B6: DCX39 (peptide)
peptide: SGSLNAWQPRSWVGGAFRSHANNNLNPKPTMVTRHPTAETVESCLAKPHTENSFTNVWKDDKTLDRYANYEGCLWNATGVVVCTGDETQCYGTWVPIGLAIPENEGGGSEGGGSEGGGSEGGGTKPPEYGDTPIPGYTYINPLDGTYPPGTEQNPANPNPSLEESQPLNTFMFQNNRFRNRQGALTVYTGTVTQGTDPVKTYYQYTPVSSKAMYDAYWNGKFRDCAFHSGFNEDPFVCEYQGQSSDLPQPPVNAGGGSGGGSGGGSEGGGSEGGGSEGGGSEGGGSGGGSGSGDFDYEKMANANKGAMTENADENALQSDAKGKLDSVATDYGAAIDGFIGDVSGLANGNGATGDFAGSNSQMAQVGDGDNSPLMNNFRQYLPSLPQSVECRPFVFSAGKPYEFSIDCDKINLFRGVFAFLLYVATFMYVFSTFANILRNKES
notes: as for B1
B7: SNiAX2 (peptide)
peptide: SDSDGDHYGLRGGVRCSLRDRGCGLALSTVHAGPPSFYPKLSSPAETVESCLAKPHTENSFTNVWKDDKTLDRYANYEGCLWNATGVVVCTGDETQCYGTWVPIGLAIPENEGGGSEGGGSEGGGSEGGGTKPPEYGDTPIPGYTYINPLDGTYPPGTEQNPANPNPSLEESQPLNTFMFQNNRFRNRQGALTVYTGTVTQGTDPVKTYYQYTPVSSKAMYDAYWNGKFRDCAFHSGFNEDPFVCEYQGQSSDLPQPPVNAGGGSGGGSGGGSEGGGSEGGGSEGGGSEGGGSGGGSGSGDFDYEKMANANKGAMTENADENALQSDAKGKLDSVATDYGAAIDGFIGDVSGLANGNGATGDFAGSNSQMAQVGDGDNSPLMNNFRQYLPSLPQSVECRPFVFSAGKPYEFSIDCDKINLFRGVFAFLLYVATFMYVFSTFANILRNKES
notes: as for B1
B8: SNiAX8 (peptide)
peptide: SPKLSSVGVMTKVTELPTEGPNAISIPISATLGPRNPLRAETVESCLAKPHTENSFTNVWKDDKTLDRYANYEGCLWNATGVVVCTGDETQCYGTWVPIGLAIPENEGGGSEGGGSEGGGSEGGGTKPPEYGDTPIPGYTYINPLDGTYPPGTEQNPANPNPSLEESQPLNTFMFQNNRFRNRQGALTVYTGTVTQGTDPVKTYYQYTPVSSKAMYDAYWNGKFRDCAFHSGFNEDPFVCEYQGQSSDLPQPPVNAGGGSGGGSGGGSEGGGSEGGGSEGGGSEGGGSGGGSGSGDFDYEKMANANKGAMTENADENALQSDAKGKLDSVATDYGAAIDGFIGDVSGLANGNGATGDFAGSNSQMAQVGDGDNSPLMNNFRQYLPSLPQSVECRPFVFSAGKPYEFSIDCDKINLFRGVFAFLLYVATFMYVFSTFANILRNKES
notes: as for B1
B9: SNiAX6 (peptide)
peptide: RTTTAKGCLLGSFGVLSGCSFTPTSPPPHLGYPPHSVNAETVESCLAKPHTENSFTNVWKDDKTLDRYANYEGCLWNATGVVVCTGDETQCYGTWVPIGLAIPENEGGGSEGGGSEGGGSEGGGTKPPEYGDTPIPGYTYINPLDGTYPPGTEQNPANPNPSLEESQPLNTFMFQNNRFRNRQGALTVYTGTVTQGTDPVKTYYQYTPVSSKAMYDAYWNGKFRDCAFHSGFNEDPFVCEYQGQSSDLPQPPVNAGGGSGGGSGGGSEGGGSEGGGSEGGGSEGGGSGGGSGSGDFDYEKMANANKGAMTENADENALQSDAKGKLDSVATDYGAAIDGFIGDVSGLANGNGATGDFAGSNSQMAQVGDGDNSPLMNNFRQYLPSLPQSVECRPFVFSAGKPYEFSIDCDKINLFRGVFAFLLYVATFMYVFSTFANILRNKES
notes: as for B1
B10: SNi45 (peptide)
peptide: SGGEVSSWGRVNDLCARVSWTGCGTARSARTDNKGFLPKHSSLRAETVESCLAKPHTENSFTNVWKDDKTLDRYANYEGCLWNATGVVVCTGDETQCYGTWVPIGLAIPENEGGGSEGGGSEGGGSEGGGTKPPEYGDTPIPGYTYINPLDGTYPPGTEQNPANPNPSLEESQPLNTFMFQNNRFRNRQGALTVYTGTVTQGTDPVKTYYQYTPVSSKAMYDAYWNGKFRDCAFHSGFNEDPFVCEYQGQSSDLPQPPVNAGGGSGGGSGGGSEGGGSEGGGSEGGGSEGGGSGGGSGSGDFDYEKMANANKGAMTENADENALQSDAKGKLDSVATDYGAAIDGFIGDVSGLANGNGATGDFAGSNSQMAQVGDGDNSPLMNNFRQYLPSLPQSVECRPFVFSAGKPYEFSIDCDKINLFRGVFAFLLYVATFMYVFSTFANILRNKES
notes: as for B1

The target of the first assay is T1, D2H receptor domain (human D2H transporter, amino acid residues 387-685), His-tag fusion protein (human, UniProt Q07837 387-685).
T1 construct: purified under denaturing conditions; also called recombinant D2H; not shown: poly-histidine tag (pET vector) at the NH2-terminal end
T1 sequence: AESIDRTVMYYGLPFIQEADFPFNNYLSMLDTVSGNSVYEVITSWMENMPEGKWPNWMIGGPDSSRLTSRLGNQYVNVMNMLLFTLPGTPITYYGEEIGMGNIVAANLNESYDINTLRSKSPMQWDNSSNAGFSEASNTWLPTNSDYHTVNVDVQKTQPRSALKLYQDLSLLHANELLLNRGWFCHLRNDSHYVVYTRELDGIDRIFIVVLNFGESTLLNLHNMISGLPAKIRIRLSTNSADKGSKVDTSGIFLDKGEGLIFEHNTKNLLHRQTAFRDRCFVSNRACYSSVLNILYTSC
The assay is described as follows: phage ELISA, plate coated with D2H domain. How it is done:
(§1) 6.6. Receptor ELISA Procedure 96 well plates were coated overnight with GIT receptor, BSA and, optionally, IDE (insulin degrading enzyme, an irrelevant His-fusion protein)or hTF. The plates were blocked for one hour with 0.5% BSA-PBS. After clarification, the amplified phage were diluted 1:100 in […] plus 0.05% Tween 20 in PBS and added to the plates. Following incubation of the plates on a rotator for 1 to 2 hours, the plates were washed 5 times with 1% BSA plus 0.05% Tween 20 in PBS. […] After the plates were washed 5 times, as described above, TMB substrate was added to the wells. The plates were read at 650 nm absorbance.
Binding to fixed Caco-2 cells, D2H and BSA was examined.
For orientation: ELISA stands for enzyme-linked immunosorbent assay.
The molecule B1 showed an OD of 0.956 OD.

In turn, B2 registered an OD of 0.616 OD.

B3 registered an OD of 0.336 OD. In turn, B4 registered an OD of 0.293 OD. Regarding B5, the OD is 0.158 OD. Regarding B6, the OD worked out at 0.299 OD.

A further assay deals with T2, hSI receptor domain (human sucrase-isomaltase complex, amino acid residues 272-667), His-tag fusion protein (human, UniProt P14410 272-667).
T2 construct: also called hS1; recombinant hSI; not shown: poly-histidine tag (pET vector) at the NH2-terminal end
T2 sequence (P14410 272-667, one chain of several): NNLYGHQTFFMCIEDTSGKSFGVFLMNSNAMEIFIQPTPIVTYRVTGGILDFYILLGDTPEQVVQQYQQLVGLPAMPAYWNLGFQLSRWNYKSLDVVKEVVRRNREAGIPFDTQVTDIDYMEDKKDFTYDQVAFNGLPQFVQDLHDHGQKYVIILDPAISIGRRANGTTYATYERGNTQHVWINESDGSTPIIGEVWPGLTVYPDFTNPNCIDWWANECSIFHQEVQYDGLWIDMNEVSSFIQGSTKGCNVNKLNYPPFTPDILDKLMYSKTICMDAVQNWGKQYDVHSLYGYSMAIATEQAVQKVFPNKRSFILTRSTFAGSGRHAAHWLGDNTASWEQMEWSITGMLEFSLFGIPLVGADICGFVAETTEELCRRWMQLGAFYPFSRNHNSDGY
Nature of the assay: phage ELISA, OD on hSI over OD on BSA. As to the method:
as §1
For the molecule B7, the hSI/BSA came out at 6 ratio. Molecule B8 registered a hSI/BSA of 5 ratio. Still for that read-out and setting: the same measure for B9: 7 ratio; for B10: 9 ratio.

The target of another assay is T2, hSI receptor domain (human …). Nature of the assay: phage ELISA, plate coated with hSI domain. As to the method:
as §1
B7 came in with an OD of 0.383 OD. Consider B8, for which the OD stood at 0.342 OD. Same read-out and setting: to B9 belongs 0.369 OD. In turn, B10 returned an OD of 0.518 OD.

The record behind these values is US6703362 (CYTOGEN, dated 2004).
